Measured values: publication PMC6759604 (Frontiers in Microbiology, 2019)

Tests used:
[1] = target: Vibrio parahaemolyticus HqsK (VP1876) D499A (Vibrio parahaemolyticus) (UniProt Q87NJ2)
[2] = target: Vp HqsK (VP1876 HK; H-NOX-associated quorum sensing kinase) (Vibrio parahaemolyticus, UniProt Q87NJ2); details: 250 μM OMFP, pH 8.0, room temperature

Molecule | inhibition of HqsK autophosphorylation ([gamma-32P]-ATP, SDS-PAGE, autoradiography) by Fe(II)-NO H-NOX; 69.4 uM H-NOX, 5.3 uM HqsK D499A, purified proteins, room temperature, anaerobic [1] | phosphatase assay, O-methylfluorescein release at 450 nm [2]
Vibrio parahaemolyticus H-NOX (VP1877) (from UniProt Q87NJ1 1-179) (natural protein) | 75% | –
COc1ccc2c(c1)Oc1cc(OP(=O)(O)O)ccc1C21OC(=O)c2ccccc21 (centres unmarked) [3-O-methyl fluorescein phosphate] | – | Wild-type HqsK displays increasing OMF fluorescence over time, indicating Vp HqsK has phosphatase activity
